Test results: patent US20200299415A1

Assays:
[1] = molecular target: cell surface receptors in membranes prepared from SH-SY5Y cells; test: radioligand saturation binding on SH-SY5Y cell membranes; lower end of range
[2] = molecular target: cell surface receptors in membranes prepared from SH-SY5Y cells; test: radioligand saturation binding on SH-SY5Y cell membranes; upper end of printed range
[3] = molecular target: cell surface receptors in membranes prepared from SH-SY5Y cells; test: radioligand saturation binding on SH-SY5Y cell membranes, filtration, nonlinear regression; lower end of range
[4] = molecular target: cell surface receptors in membranes prepared from SH-SY5Y cells; test: radioligand saturation binding on SH-SY5Y cell membranes, filtration, nonlinear regression; upper end of printed range

- Bmax (fmol/mg protein) [1]: 88
- Bmax (fmol/mg protein) [2]: 104
- Kd [3]: 0.087 nM
- Kd [4]: 0.149 nM
Substance: [3H][Dmt1]DALDA (2',6'-Dmt-D-Arg-Phe-Lys-NH2, tritiated) (peptide)
